Measurements as given in publication PMC4538829.

Key:
NM23-H2 G113F [1] = target: T1, NM23-H2 G113F (UniProt P22392 1-152, G113F); test: EMSA
NM23-H2 D54A/D121A/F60A [2] = target: T2, NM23-H2 D54A/D121A/F60A (UniProt P22392 1-152, D54A;F60A;D121A); test: EMSA
NM23-H2 D121A [3] = target: T3, NM23-H2 D121A (UniProt P22392 1-152, D121A); test: EMSA
NM23-H2 D54A/D121A [4] = target: T4, NM23-H2 D54A/D121A (UniProt P22392 1-152, D54A;D121A); test: EMSA
NM23-H2 wild-type = NM23-H2 wild-type (UniProt P22392 1-152); test: ELISA
NM23-H2 G113F [5] = target: T1, NM23-H2 G113F; test: filter binding
NM23-H2 D54A/D121A/F60A [6] = target: T2, NM23-H2 D54A/D121A/F60A; test: filter binding
NM23-H2 D121A [7] = target: T3, NM23-H2 D121A; test: filter binding
NM23-H2 D54A/D121A [8] = target: T4, NM23-H2 D54A/D121A; test: filter binding

T1 sequence (P22392 whole entry G113F): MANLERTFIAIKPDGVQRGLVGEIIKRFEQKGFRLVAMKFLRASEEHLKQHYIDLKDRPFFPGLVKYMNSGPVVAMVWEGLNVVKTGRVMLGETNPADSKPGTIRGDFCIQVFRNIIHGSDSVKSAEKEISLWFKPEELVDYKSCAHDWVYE
T2 sequence (P22392 whole entry D54A/F60A/D121A): as the sequence (P22392 whole entry G113F) above, with D54A, F60A, F113G, D121A counted along it
T3 sequence (P22392 whole entry D121A): as the sequence (P22392 whole entry G113F) above, with F113G, D121A counted along it
T4 sequence (P22392 whole entry D54A/D121A): as the sequence (P22392 whole entry G113F) above, with D54A, F113G, D121A counted along it
Sequence of NM23-H2 wild-type (P22392 whole entry): as the sequence (P22392 whole entry G113F) above, with F113G counted along it

TGGGGAGGGTGGGGAGGGTGGGGAAGG (ssDNA) [c-MYC Pu27 (FAM)]
no binding: binding result (NM23-H2 G113F [1]) | binding result (NM23-H2 D54A/D121A/F60A [2]) | binding result (NM23-H2 D121A [3]) | binding result (NM23-H2 D54A/D121A [4])

AGGGTGGGGAGGGTGGGG (structured_DNA) [c-MYC Pu18 G-quadruplex]
530 ± 18 nM: Kd (NM23-H2 wild-type)

TGGGGAGGGTGGGGAGGGTGGGGAAGG (ssDNA) [SS-Pu27 (biotin)]
no binding: binding result (NM23-H2 G113F [5]) | binding result (NM23-H2 D54A/D121A/F60A [6]) | binding result (NM23-H2 D121A [7]) | binding result (NM23-H2 D54A/D121A [8])
